The target of the test is T1, BSA (UniProt P02769 25-607).
T1 construct: also called carrier protein BSA; 3% BSA
Kind of test: phage ELISA on coated plates, detection with HRP/anti-M13, OD450. (In general: An ELISA detects its analyte on a solid surface through an enzyme-linked reagent.)

T1 sequence (P02769 25-607 limits assumed): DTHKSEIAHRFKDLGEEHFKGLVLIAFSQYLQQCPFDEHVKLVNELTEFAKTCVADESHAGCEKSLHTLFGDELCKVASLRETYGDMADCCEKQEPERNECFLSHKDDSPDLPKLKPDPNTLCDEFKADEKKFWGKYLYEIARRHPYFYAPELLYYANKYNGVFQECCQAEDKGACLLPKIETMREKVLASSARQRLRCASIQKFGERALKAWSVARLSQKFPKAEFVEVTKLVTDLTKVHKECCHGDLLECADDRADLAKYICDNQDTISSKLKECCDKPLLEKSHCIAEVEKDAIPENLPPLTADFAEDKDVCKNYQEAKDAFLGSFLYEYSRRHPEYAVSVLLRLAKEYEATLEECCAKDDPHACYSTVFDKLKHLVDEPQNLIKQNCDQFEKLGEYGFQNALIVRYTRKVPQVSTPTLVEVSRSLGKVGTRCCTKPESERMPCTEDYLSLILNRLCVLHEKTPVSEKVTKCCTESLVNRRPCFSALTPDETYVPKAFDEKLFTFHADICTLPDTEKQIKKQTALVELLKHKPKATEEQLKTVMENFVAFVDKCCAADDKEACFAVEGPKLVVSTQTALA

B1: aflatoxin B1 nanobody 2014AFB-G15 (VHH)
VHH: QLQLVESGGGLVQAGGSLRLSCAASGRTFSSYAMGWFRQAPGKEREFVAAISWSGGSTYYTDSVKGRFTINRDNAKNTVYLQMNSLKPEDTAVYYCAAGFSGNYYRTPDYWGQGTQVTVSS
notes: also called antibody 2014AFB-G15
On to B1, for which the binding result is given as “no binding (tested: wells coated with 3% BSA)”.

(Values after patent EP3124498A1 (Oilcrops Research Institute of Chinese Academy of …, dated 2017).)
